Experimental data reported in the DeepSol protein solubility set.

assay: soluble on expression in E. coli; label from the status in PepcDB or PDB records

| Sequence | soluble on expression in E. coli |
| --- | --- |
| MCAKATMEEFEALLNESLQIDTPQEGSVVKGKVIAVEAGQAIIDVGYKMEGRVDLKEFADMSGSVDISVGDEVEVYLDRVENARGEAVISRDKAKREEAWDRLEKAYANETRVEGAIFGRVKGGFTVDLGGAVAFLPGSQVDVRPVRDAGPLMGMKQPFQILKMDRRRGNIVVSRRAILEESRAEQRAEVISNLFEGQTVDGVVKNITEYGAFVDLGGVDGLLHVTDMAWRRVNHPSEILSIGETVKVQVIKINKETHRISLGMKQLQSDPWDAVEKAYPIGSVHKGRVTNITDYGAFVELEAGVEGLVHVSEMSWTKKNVHPGKIVSTSQEVDVMVLEIDSAKRRVSLGLKQTMRNPWEVFAETHPVGTPIEGEVKNITEFGLFVGLEHDIDGMVHLSDLSWDQRGEEAIQNYRKGDVVKAVVTEVDTDKERISLSIKALGDDTFSEAIEGVKRGSVITVTVTAIEDGGIEVEYNSMKSFIRRSDLSRDRADQRPERFQVGDKVDVRVTNVDAKTRRLGLSIKAREIAEEKEAVEQYGSSDSGASLGDILGAALRNSDRGLEHHHHHH | soluble |
| MFFLQMSGFPGSGKSTVSKYIAKLTGAVIIDHDVLKSALLKSLKVKGIESTIVGGLAYDAEWVLIDSYLEQGHSVILDSPCLYEGMVEKGIELSNKHGVKYKYIECYLNDMEEINRRLQTRKRMISQIEKVESEVGFKKWLNGSKRPSNNEYLIVDSSKPIEQYVEKMMDYMTK | not soluble |
| MGSDKIHHHHHHMSIAVTTTDPTNTGVSTTSSSSLTGSNAADLQSSFLTLLVAQLKNQDPTNPMENNELTSQLAQISTVSGIEKLNTTLGSISGQIDNSQSLQASNLIGHGVMIPGTTVLAGTGSEEGAVTTTTPFGVELQQAADKVTATITDKNGAVVRTIDIGELTAGVHSFTWDGTLTDGSTAPNGSYNVAISASNGGTQLVAQPLQFALVQGVIRGNSGNTLDLGTYGTTTLDEVRQII | not soluble |
| MMMSSEMIHVEVVYALPHEQRVLKLVVEQSATVEEIIRTSGILQMYPEIDLTVNKVGIFSRNVKLDARVRDKDRIEIYRPLLADPKEIRRKRAEQAKAAANQS | not soluble |
| MGSDKIHHHHHHMTVADLVAGLRESRGFRHKTDIVDVVGSLAKRLPRGKRDLAQAVALGDDCAALADGDGYLLFAIEGMVSDFVSAMPWFAGYSSVMVNVSDIYAMGGRPLAVVDALWSQGIGAAEEVLAGMAAASVAYGVPIVGGHTNTRSEAAQLAVSIIGRARALLSSFNAKPGDSLMMAVDLRGRFEEPYPFWNASVDAPPERLRADLELLPQLAENGLCDAAKDISMAGTLGTALMLLECSQVGARIDLACIPKPEGVPLERWVSAFPSFGYLLSVRPEHVETVRAKFSARSLACSVIGSVDATSQVVLHRQDDAATLWDFQREPFIIGKDEVK | not soluble |
| MGSDKIHHHHHHMEDKQKVIFIEDDPNLGLIIVLALQSKGYEVCYANTLSGIQDMIEKDCPNILLLDLEVGNQNALDYLPFIRSKHPSLPVLIASSHNEGEEITRCYEAGANHYTKKPYDIQEIDFLIQRFCKKGSPISNSISIGDYQLELSTHKLFYKQEQSKTLSPKDFKLFYLLSEQLNQPVSREKLFHEIWDGQEVHDSLNNSISRLRKLLEKDTTLSIDAVKGVGYILSKKDQLSSS | not soluble |
| MGSDKIHHHHHHMTRILVLYFTRGGHTAKIANAIAEQLTLRGAKVDLVDINSAAATRINWSDYQLVALGACVLYGTYDKSVFQFIEQHVQALSFLPNSFFCVNVVARNPEKRIPENNKYLQKFITLSPWTPADLKIIAGKVDYPSWPWYDRLMIQLIMKITKGPTDPKAVIDYTDWEDVKVYADHLLTLVEVAEPA | not soluble |
| MGELWGNGGGCYSPVPPVMIPFMAYYEKRGDAWRAQIRRKGYPTLSATFDTKAEAQRWAAELEGDMSRARFVDVREAEATSLATALERYESEVTESKKGAKQERVRIKKWMESKFAGKSLASLRSSDMASYRDAEIKAGRSTATVRLDLAVISHLYTVATKDWGIEGLTNPCRALRMPKGSKQRERRPTADELKSLYKAAGEISPELPVIIELAVETAMRRSELVTLRKDQIQGKVAFLEDTKNGERRSVPLSSRARELIEGVPAPIKGGPLFRLKADTVSNYFPLACEKANIQGLRLHDLRHEATSRLFERGFTMMEVASITGHKTLAMLKRYTHLSPQDLAEKLG | not soluble |
| MPAQIEDYALLGNCRSAALVSRDGALDWLCLPRFDAPAVFAALLGNEENGRWRLAPCDPVTHSSRQYLGDTLVLETTWVTASGRARVLDFMPLGEVNSVVRIVEGLSGETHFEMDLVMRFDYGLEHHHHHH | not soluble |
| MGSDKIHHHHHHADNNKWKPLFGKNLENANYNPEVWSETDGVLGAVKDESIWTKDEYENFELDLDFKTDVGTNSGVVVYCTDTKDWIPNSVEIQIADDHCEKWGNGKPYEKCGAIYGHLGAVQDKVVKKPGEWNHMRIKCAGQHIMVILNGKKVTEMDMSKWTSGTKNPDGSDIPSWLPKPFAELPTKGFIGLQGKHGDSLIWFRNIKIRSL | not soluble |
| MRQTNNKESTMKPTADILASIIEEVRPLTSKGIVADYIPALAKVPSDKLGIAVFTNQGEVITAGDAQEGFSIQSISKVLSLTLAMGLYQPDELWSRVGKEPSGQAFNSLIQLEMEQGIPRNPFINAGAIVVCDMLQSRLSAPRQRLLEFVRQLSGEPQIAYDKVVAASEMMHSDRNAAIAYLMRSFGNFHNEVIPVLHNYFHACALKMSCVELAKTFSYLANKGVSVVTGETVITPTQSKQTNALLATCGLYDGAGEFAYRVGMPGKSGVGGGIIAVVPGEMTIAVWSPALDQSGNSLAGTRALELLAQRIGRSIFLEHHHHHH | soluble |
| MGMFERDTEIYLDRDALREDYQPENLVGRDTELNRYRAALQPVINGEQPNNIFLYGKTGVGKTAGTRYLIDHLEEDAAKYEDIDLTVKMLNCDGLSSSYQIATRLVNEFRDETSQISTTGYPRATVYDMLWTELDSCGGTIYIVLDEVDHIEDDSILYQLPRARANDNLSSAKIGIIGISNDFSFRDDLSPKVKSSLCEEEIQFPA | not soluble |
| MGSDKIHHHHHHMDLRQLPALNAIRAFEAAARHENFSRAADELFVTHGAVSHQVRALEEELGVQLFARNGKRLCLTGAGMRYAQQVRTALMMLADATREVRASDRDRRLVVSMLSSFAARFVTPRIGTFIERHPEIDVELQSTNNLTDFARDDVDLAIRFGFGNYPGLHVEPLFDEVFFPACAPTLNGGKLPQTPADLVHYNLLRSDDELWRPWFDAAGLDTLTEPKRGILYQDSSNLLLAAIEGQGIALVRRSLAVHDLLDGRLVRLFDIDGASPWHYFFVCPPPLLNAPRVQAFRAWMFEEVAQFKLLCDELDARRAAGKTPAECAQEGGWKGLRAQP | not soluble |
| MSLNSEAKSRIACDIDFDRDGRQAGYARAPLSRNNSGWGTVEIPITVVKNGSGPTVLLTGGVHGDEYEGQIAISDLARRLRPEEVQGRVIMLPAVNMPAIQSDTRLSPVDGRDINRCFPGDPRGTFSQMLAHFLDSVILPMADISVDMHTAGHSYDSTPSTNMHYLADPALRARTLAAAEAFGAPHNVVFGGVDEGSTFTSCVERRGIVSLGTELGGWGRVNIEGVRIGKRGILNVLKHMGVIEGTPETAQRGGAAGTRHMMVREADAYVMAPRTGLFEPTHYVGEEVRTGETAGWIHFVEDVDTAPLELLYRRDGIVWFGAGPGRVTRGDAVAVVMEDYNDTWPQEGHHHHHH | soluble |
| GPGSMLRSEVLDAEVAKSVEAYSTAVTPFVERRSGLYLTKFEVARIIGERAKQIASGAAMSLPGTGSGLDSVETAERCTNPRSLAVDPVMMAKYDLLQRKIRMLVRRVWPDGAVETIPVNELMVDVTMLDLQY | soluble |
| MSAQLTDSYGLLEARVTELKGELADAGVQRLQELAEKERLANRLQNLLDLLPGGVIVIDGMGVVREANPAAIDLLGQPLLGMLWRHVISRCFAPREDDGHEVSLKDGRRLSIATRSLDAEPGQLVLLNDLT | not soluble |
| MGSDKIHHHHHHMDCFYDYHKSLSPDEYVWDYEEFLYYGSDKFIKDVFVDGGVDIALSQPAYLQFFFREPFGNTNEFGTMALKYPYRFIIGTRWDPREGEEGKRQLEEDVRKYRVKPWQMRHVKLYTAEWKEVNGGISRGWRLDSPQAFEFLEFNRELGIDIQVPHKGPTVWPLSKDAFDVHDVDTAASSFPELRFVVTHVGLPRIDDFSWIGVQDKNVYAGLAVATAFIRKRPKYFAEIMAELLFWLGPDRIIFGSDYAIWHPKWIIEDFIKFELPRDLESEYGVELTLENKKKILGENAARLWGIDVEEAKKAVREDQIASRYGAKPRVFKVEG | not soluble |
